According to the supplement of paper PMC7877785:
± gives the uncertainty stated by the source.

Assay: self-splicing fitness, log relative to wild type (ln ratio); higher = more splicing; Tetrahymena group I intron in knt gene, E. coli kanamycin selection, DiMSum; sequences stand for … in CUCUCU…GGAGGGAAAAGUUAUCAGGCAUGCACCUGGUAGCUAGUCUUUAAACCAAUAGAUUGCAUCGGUUUAAAAGGCAAGACCGUCAAAUUGCGGGAAAGGGGUCAACAGCCGUUCAGUACCAAGUCUCAGGGGAAACUUUGAGAUGGCCUUGCAAAGGGUAUGGUAAUAAGCUGACGGACAUGGUCCUAACCACGCAGCCAAGUCCUAAGUCAACAGAUCUUCUGUUGAUAUGGAUGCAGUUCACAGACUAAAUGUCGGUCGGGGAAGAUGUAUUCUUCUCAUAAGAUAUAGUCGGACCUCUCCUUAAUGGGAGCUAGCGGAUGAAGUGAUGCAACACUGGAGCCGCUGGGAACUAAUUUGUAUGCGAAAGUAUAUUGAUUAGUUUUGGAGUACUCGUGGUCG
How it was run: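 DiMSum derived fitness as the error-weighted combination of fold changes across replicates, kanamycin versus no kanamycin, normalised to wild type. E. coli BL21(DE3) held the library, which randomised all eight P1ex-region intron nucleotides within the knt kanamycin-resistance gene on pET-22b(+). Six replicate transformations grew overnight at 37°C or 30°C on LB agar with or without 25 μg/mL kanamycin, also containing 100 μg/mL carbenicillin, 50 μM IPTG and 0.2% rhamnose, and pooled colonies were amplicon-sequenced on an Illumina HiSeq 2500.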

| Sequence | self-splicing fitness (ln) (30 °C) | self-splicing fitness (ln) (37 °C) |
| --- | --- | --- |
| UGGAAGCAAUAUUACGAACC | -1.6 ± 0.13 | -0.663 ± 0.12 |
| UGGAAGCAAUAUUACGAAGG | -2.12 ± 0.14 | -0.449 ± 0.18 |
| UGGAAGCAAUAUUACGACCG | -0.874 ± 0.13 | -0.818 ± 0.17 |
| UGGAAGCAAUAUUACGACUC | -0.463 ± 0.11 | -0.577 ± 0.16 |
| UGGAAGCAAUAUUACGAGAC | -3.31 ± 0.48 | – |
| UGGAAGCAAUAUUACGCAUG | -1.02 ± 0.096 | -0.486 ± 0.12 |
| UGGAAGCAAUAUUACGCCAC | -2.25 ± 0.42 | – |
| UGGAAGCAAUAUUACGCCGG | -0.646 ± 0.17 | -0.109 ± 0.16 |
| UGGAAGCAAUAUUACGCCGU | -2.99 ± 0.48 | -1.87 ± 0.44 |
| UGGAAGCAAUAUUACGCUAA | -1.31 ± 0.32 | -0.826 ± 0.38 |
| UGGAAGCAAUAUUACGGAAG | -1.69 ± 0.12 | -1.46 ± 0.17 |
| UGGAAGCAAUAUUACGGCAU | -1.94 ± 0.19 | -1.13 ± 0.19 |
| UGGAAGCAAUAUUACGGCGU | -1.16 ± 0.13 | 0.0292 ± 0.12 |
| UGGAAGCAAUAUUACGGCUC | -1.89 ± 0.49 | -1.42 ± 0.36 |
| UGGAAGCAAUAUUACGGGAA | -2.15 ± 0.21 | -1.19 ± 0.16 |
| UGGAAGCAAUAUUACGGGAG | -1.73 ± 0.37 | -2.09 ± 0.25 |
| UGGAAGCAAUAUUACGGGGC | -3.24 ± 0.44 | -1.35 ± 0.26 |
| UGGAAGCAAUAUUACGGGGU | -3.12 ± 0.31 | -1.99 ± 0.35 |
| UGGAAGCAAUAUUACGGGUA | -1.67 ± 0.13 | -1.05 ± 0.13 |
| UGGAAGCAAUAUUACGGUCC | -2.67 ± 0.15 | -1.51 ± 0.14 |

| Sequence | self-splicing fitness (ln) (30 °C) | self-splicing fitness (ln) (37 °C) |
| --- | --- | --- |
| UGGAAGCAAUAUUACGGUGA | -1.41 ± 0.12 | -0.4 ± 0.13 |
| UGGAAGCAAUAUUACGGUGG | -1.42 ± 0.091 | -0.276 ± 0.11 |
| UGGAAGCAAUAUUACGGUUC | -3.84 ± 0.2 | -2.21 ± 0.2 |
| UGGAAGCAAUAUUACGUAAC | -2.91 ± 0.33 | -1.71 ± 0.26 |
| UGGAAGCAAUAUUACGUAAU | -3.03 ± 0.18 | -0.953 ± 0.16 |
| UGGAAGCAAUAUUACGUAUA | -2.2 ± 0.26 | -1.27 ± 0.2 |
| UGGAAGCAAUAUUACGUCCA | -2.02 ± 0.39 | – |
| UGGAAGCAAUAUUACGUCUU | -0.99 ± 0.11 | -0.129 ± 0.13 |
| UGGAAGCAAUAUUACGUGAG | -0.593 ± 0.066 | -0.141 ± 0.098 |
| UGGAAGCAAUAUUACGUGUC | – | -2.38 ± 0.18 |
| UGGAAGCAAUAUUACGUUAG | -0.289 ± 0.094 | -1.07 ± 0.14 |
| UGGAAGCAAUAUUACGUUUU | -3.63 ± 0.33 | -2.43 ± 0.27 |
| UGGCAGCAAUAUUACGAAAU | -3.14 ± 0.29 | -0.617 ± 0.19 |
| UGGCAGCAAUAUUACGACAC | – | -0.701 ± 0.31 |
| UGGCAGCAAUAUUACGAGUU | -4.06 ± 0.3 | -2.48 ± 0.24 |
| UGGCAGCAAUAUUACGAUAA | -0.124 ± 0.1 | 0.0812 ± 0.1 |
| UGGCAGCAAUAUUACGAUGU | -4.09 ± 0.3 | -1.67 ± 0.34 |
| UGGCAGCAAUAUUACGAUUA | -0.716 ± 0.089 | 0.492 ± 0.11 |
| UGGCAGCAAUAUUACGCAAC | -2.74 ± 0.18 | -2.14 ± 0.39 |
